Reference: PMC4303326

B1: (dT)21/(dA)21 duplex (dsDNA)
DNA 1: TTTTTTTTTTTTTTTTTTTTT
DNA 2: AAAAAAAAAAAAAAAAAAAAA
modifications: 5' thiol; 3' methylene blue on dT strand

Legend:
Test in all cases: electrochemical DNA sensor
[1] = biological target: T1, gene 32 protein (g32p), full-length (bacteriophage T4, UniProt P03695 1-301)
T1 sequence: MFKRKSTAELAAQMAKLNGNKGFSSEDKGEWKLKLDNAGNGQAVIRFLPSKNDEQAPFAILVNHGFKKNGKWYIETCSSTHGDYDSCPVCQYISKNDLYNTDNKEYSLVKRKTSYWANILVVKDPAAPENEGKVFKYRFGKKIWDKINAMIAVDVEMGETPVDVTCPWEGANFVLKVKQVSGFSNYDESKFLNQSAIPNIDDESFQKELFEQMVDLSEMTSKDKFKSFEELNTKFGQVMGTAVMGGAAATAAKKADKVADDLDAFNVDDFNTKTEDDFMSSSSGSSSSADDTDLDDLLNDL

thrombin = thrombin (bovine, UniProt P00735;P00735 318-366;367-625)
[2] = biological target: T1, gene 32 protein (g32p), full-length; remark: listed apart in the source

Row | Binder | binding result [1] | binding result (thrombin) | Kd [2]
1 | B1 | no binding |  | 
2 | TTTTTTTTTTTTTTTTTTTTT (ssDNA, 5' thiol; 3' methylene blue) [(dT)21 probe] |  | no binding | ~100 nM
